{
  "source": "patent US20230398116A1",
  "about": "“Agent for reversing resistance to anticancer drugs” (Y'S AC CO., LTD., priority 2020, published 2023)",
  "molecules": {"B1": {"name": "69-10: mouse anti-human IL-26 monoclonal antibody, clone 69-10, from deposited hybridoma (antibody, V domains shown)", "VH": "QVTLKESGPGILKPSQTLSLTCSFSGFSLSTSGMGVGWIRQPSGKGLEWLAHIWWDDDKYYNPSLKSQLTISKDTSRNQVFLKITSVDTADTATYYCVRGGITATHYYAMDYWGQGTSVTVSS", "VL": "DIQMTQSPASQSASLGESVTISCLASQTIGTWLSWYQQKPGKSPQLLIYAATSLADGVPSRFSGSGSGTKFSFKISSLQAEDFVSYYCQQLYSSPWTFGGGTKLEIK"}, "B2": {"name": "IL-26: recombinant human IL-26 dimers for cell stimulation, R&D Systems (protein)", "chain": "KHKQSSFTKSCYPRGTLSQAVDALYIKAAWLKATIPEDRIKNIRLLKKKTKKQFMKNCQFQEQLLSFFMEDVFGQLQLQGCKKIRFVEDFHSLRQKLSHCISCASSAREMKSITRMKRIFYRIGNKGIYKAISELDILLSWIKKLLESSQ"}},
  "key": {"MDA-MB468 cells": {"test_system": "MDA-MB468 cells", "assay": "MTT assay / cell proliferation (confluence) assay, MDA-MB468", "type": "cell-based, human", "experimental": "(§1) Human and mouse breast cancer cells (1×10^4) were cultured in 10% FCS containing RPMI1640 medium on a 96-well flat bottom plate (Corning, Tewksbury, MA) at 37° C. for 24 hours, and then stimulated with IL-26 for 48 hours in the presence or absence of EGFR-TKI (gefitinib or erlotinib) at various concentrations, a signal inhibitor, and a neutralizing antibody. HUVECs were seeded in a 96-well flat bottom plate at 5×10^3 cells/well in a 2% FBS-containing EGM medium in which growth factors were reduced by half, and cultured at 37° C. for 12 hours. Thereafter, the medium was aspirated, and a recombinant human IL-26 dimer was adjusted to a final concentration of 10 ng/mL in a 2% FBS-containing EGM medium containing no growth factors, and added to the cells. The stimulation was started in the presence or absence of control human IgG and anti-human IL-26 antibodies, and the cells were cultured for 48 hours. Thereafter, a concentration of 20 μl or 1/10 of a 5 mg/ml MTT solution (Tetrazolium monosodium salt, WST-8) was added to each well, and the plate was allowed to stand for 1 hour. The absorbance at 450 nm/595 nm was measured using Microplate Reader (Bio-Rad, Hercules, CA) and data was analyzed with Microplate Manager 6 software (Bio-Rad).\n(§2) Human and mouse breast cancer cells (1×10^4) were cultured in RPMI1640 medium containing 10% FCS for 24 hours at 37° C. on a 96-well flat bottom plate (Corning), and then stimulated with IL-26 (30 ng/ml) in the presence or absence of various concentrations of gefitinib and a neutralizing antibody. Cell proliferation was measured as cell confluence using IncuCyte ZOOM (Essen Bioscience, Ann Arbor, MI)."}, "T47D cells": {"test_system": "T47D cells", "assay": "MTT assay / cell proliferation (confluence) assay, T47D", "type": "cell-based, human", "conditions": "48 hours", "experimental": "as §1, with “The stimulation was started in the presence or absence of control human IgG and anti-human IL-26 antibodies, and the cells were cultured for 48 hours. Thereafter, a concentration of 20 μl or 1/10 of a 5 mg/ml MTT solution (Tetrazolium monosodium salt, WST-8) was added to each well, and the plate was allowed to stand for 1 hour.” left out\nas §2"}, "[1]": {"test_system": "phosphorylation of AKT, JNK, STAT3 and EphA3 in E0771 cells", "assay": "Western blotting of phosphorylation in E0771 cells", "type": "cell-based, mouse", "experimental": "To analyze the phosphorylation of AKT, ERK, p38, JNK, STAT3, and EphA3, E0771 cells and HCC70 cells in 100 mm dishes were stimulated with IL-26 ([…]) and an anti-EphA3 polyclonal antibody (pAb) (10 μg/ml) for a specified period of time. After stimulation, the cells were lysed with a 2% protease inhibitor mixture (Sigma-Aldrich) and/or RIPA buffer added with 1×PhosSTOP (Roche Diagnostics, Tokyo, Japan), and a lysate was separated in a reduced state by SDS-PAGE (15 μg/lane). Immunoblots were performed using an anti-phosphorylated AKT antibody, an anti-phosphorylated ERK antibody, an anti-phosphorylated p38 antibody, an anti-phosphorylated JNK antibody, an anti-phosphorylated STAT3 antibody, and an anti-phosphorylated EphA3 antibody that recognize both human and mouse antigens. For reprobing, the membrane was immersed in a stripping buffer. After the stripping procedure, the membranes were re-probed with anti-pan-AKT, anti-pan-ERK, anti-pan-p38, anti-pan-JNK, anti-pan-STAT3, and anti-pan-EphA3 antibodies recognizing both human and mouse antigens. Images were taken using a C-Digit Blot scanner (MS Techno Systems, Inc., Japan)."}, "[2]": {"test_system": "endoplasmic reticulum stress signaling in MDA-MB-468 cells", "assay": "qRT-PCR of endoplasmic reticulum stress markers in MDA-MB-468 cells", "type": "cell-based, human", "conditions": "6 hours", "experimental": "(§3) E0771 cells, HCC70 cells, and MDA-MB-468 cells were cultured in RPMI1640 medium containing 10% FCS on a 6-well plate (Corning), and then stimulated with IL-26 (30 ng/ml) in the presence or absence of gefitinib for 3, 6, or 12 hours. The cells were harvested and total RNA was extracted. cDNA was synthesized using PrimeScript II first-strand cDNA synthesis kit (TaKaRa Bio, Japan) and oligo (dT) primers. The mRNA levels were measured by 7500 System SDS software (Applied Biosystems, Foster City, CA) and normalized to hypoxanthine phosphoribosyltransferase expression levels."}, "[3]": {"test_system": "endoplasmic reticulum stress signaling in E0771 cells", "assay": "qRT-PCR of endoplasmic reticulum stress markers in E0771 cells", "type": "cell-based, mouse", "conditions": "6 hours", "experimental": "as §3"}, "[4]": {"target": "T1, interaction between IL-26 and EphA3 (Homo sapiens, UniProt Q9NPH9)", "T1 construct": "purchased R&D Systems; host or cells: IL-26 was purchased; EphA3 is endogenous on HCC70 cells", "T1 sequence (Q9NPH9 22-171)": "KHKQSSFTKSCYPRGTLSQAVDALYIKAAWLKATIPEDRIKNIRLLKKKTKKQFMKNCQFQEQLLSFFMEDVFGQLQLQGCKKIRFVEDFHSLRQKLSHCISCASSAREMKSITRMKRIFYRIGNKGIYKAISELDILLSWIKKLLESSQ", "assay": "Immunofluorescence of rhIL-26-Alexa488 and cell surface EphA3 on HCC70 cells", "type": "cell-based", "experimental": "E0771 and HCC70 cells (1×10^5) were cultured for 24 hours in RPMI1640 medium with 10% FCS on Lab-Tek chamber slides (Thermo Fisher Scientific). The cultured cells were stimulated with Alexa Fluor 488 labeled IL-26 (30 ng/ml) in the presence or absence of recombinant human and mouse EphA3-Ig for 1 hour. HCC70 cells were stimulated with IL-26 (30 ng/ml) in the presence or absence of gefitinib (40 μM), a signal inhibitor, and a neutralizing antibody for 24 hours. Subcutaneous tumor samples obtained from mice were fixed in 4% paraformaldehyde (Thermo Fisher Scientific) and embedded in OCT compound (Tissue-Tek (registered trademark), Sakura Finetek, Japan). Cells and slides were immunostained with each antibody and observed using a Zeiss inverted microscope and Axiovision 2.0 program (Carl Zeiss, Germany). The fluorescence intensity was quantified with Image-J software (NIH). The images were captured using a 100×400× objective."}, "[5]": {"conditions": "MDA-MB-468, IL-26 30 ng/ml, gefitinib 20 μM"}, "[6]": {"conditions": "E0771, IL-26 30 ng/ml, gefitinib 20 μM"}},
  "data": [
    {"molecule": "COc1cc2ncnc(Nc3ccc(F)c(Cl)c3)c2cc1OCCCN1CCOCC1", "note": "[gefitinib, Gefitinib, reference compound]", "values": [
      {"measurement": "cell proliferation under gefitinib", "setting": "MDA-MB468 cells; MDA-MB468, 48 hours, FIGS. 4A, 4B", "value": "suppression of cell proliferation"},
      {"measurement": "cell proliferation under gefitinib", "setting": "T47D cells; FIGS. 4C, 4D", "value": "suppression of cell proliferation"},
      {"measurement": "AKT and JNK phosphorylation under gefitinib", "setting": "[1]; E0771, gefitinib 20 μM, FIG. 24B", "value": "suppression of AKT and JNK phosphorylation"},
      {"measurement": "mRNA expression levels of DDIT3, ATF3 and ATF4, gefitinib treatment", "setting": "[2]; MDA-MB-468, gefitinib 20 μM, FIG. 29", "value": "significantly increased"},
      {"measurement": "mRNA expression levels of IL-6, IL-8 and CXCL2, gefitinib treatment", "setting": "[2]; MDA-MB-468, gefitinib 20 μM, FIG. 34", "value": "significantly increased"},
      {"measurement": "mRNA expression levels of DDIT3, ATF3 and ATF4, gefitinib treatment", "setting": "[3]; E0771, gefitinib 20 μM, FIG. 29", "value": "significantly increased"},
      {"measurement": "mRNA expression levels of endoplasmic reticulum stress-related cytokines/chemokines, gefitinib treatment", "setting": "[3]; E0771, gefitinib 20 μM, FIG. 34", "value": "significantly increased"}
    ]},
    {"molecule": "B1", "values": [
      {"measurement": "inhibition of interaction between IL-26 and EphA3", "setting": "[4]; HCC70, rhIL-26-Alexa488 30 ng/ml, 50 μg/ml each, 1 hour, FIG. 21", "value": "clearly inhibited the interaction between IL-26 and EphA3"}
    ]},
    {"molecule": "B2", "values": [
      {"measurement": "effect of exogenous IL-26 on suppression of cell proliferation by gefitinib", "setting": "MDA-MB468 cells; MDA-MB468, 48 hours", "value": "inhibited"},
      {"measurement": "effect of exogenous IL-26 on inhibitory effect of erlotinib", "setting": "MDA-MB468 cells; MDA-MB-468, IL-26 30 ng/ml, erlotinib 30 μM or 50 μM, 48 hours, MTT", "value": "inhibited the inhibitory effect of erlotinib on cell proliferation"},
      {"measurement": "effect of exogenous IL-26 on suppression of cell proliferation by gefitinib", "setting": "T47D cells", "value": "inhibited"},
      {"measurement": "colocalization of exogenous IL-26 with cell surface EphA3", "setting": "[4]; HCC70, FIG. 21", "value": "colocalized with the cell surface EphA3 of HCC70"},
      {"measurement": "phosphorylation of EphA3", "setting": "[1]; E0771, IL-26 30 ng/ml, 0 to 60 minutes, FIG. 24A", "value": "induced dephosphorylation of EphA3"},
      {"measurement": "AKT and JNK phosphorylation", "setting": "[1]; E0771, IL-26 30 ng/ml, FIG. 5E", "value": "activated AKT and JNK phosphorylation"},
      {"measurement": "STAT3 activation", "setting": "[1]; E0771, IL-26 30 ng/ml, FIG. 5E", "value": "did not activate STAT3"},
      {"measurement": "mRNA expression levels of DDIT3, ATF3 and ATF4, IL-26 with gefitinib", "setting": "[2]; [5]", "value": "significantly decreased"},
      {"measurement": "mRNA expression levels of IL-6, IL-8 and CXCL2, IL-26 with gefitinib", "setting": "[2]; [5]", "value": "significantly reduced"},
      {"measurement": "mRNA expression levels of DDIT3, ATF3 and ATF4, IL-26 with gefitinib", "setting": "[3]; [6]", "value": "significantly decreased"},
      {"measurement": "mRNA expression levels of endoplasmic reticulum stress-related cytokines/chemokines, IL-26 with gefitinib", "setting": "[3]; [6]", "value": "significantly reduced"}
    ]}
  ]
}
